The source of these data is PMC6529637.

For this test, the target named is BamA (E. coli (endogenous in MC4100-derived strains)), P0A940. Put plainly: cross-linking; in vivo formaldehyde cross-linking (0.7%, 12 min, room temperature, cells in PBS pH 7.6), SDS-PAGE and immunoblot with anti-RcsF and anti-BamA; strains grown in glucose minimal medium at 30°C; backgrounds: WT, ΔbamE, bamA101, bamB::Kan, bamD(R197L), bamD(L13P), bamA(F494L) and combinations. The following applies: remark: other sources report otherwise.

B1: regulator of capsule synthesis protein F (RcsF), P69411 16-134 (natural protein)
chain: CSMLSRSPVEPVQSTAPQPKAEPAKPKAPRATPVRIYTNAEELVGKPFRDLGEVSGDSCQASNQDSPPSIPTARKRMQINASKMKANAVLLHSCEVTSGTPGCYRQAVCIGSALNITAK
modifications: here or on the partner: lipid moiety on the N-terminal domain (lipoprotein)
For the molecule B1, the fraction of BamA cross-linked to RcsF (ΔbamE strain) stood at 30%.
